Measured values taken from FireProtDB (doi:10.1139/o86-132).

Details: Aspergillus oryzae (strain ATCC 42149 / RIB 40), pH 7, 25 °C, GdnHCl, CD, cacodylate 0.013 M, reversible: yes, whole UniProt chain shown

B1: Guanyl-specific ribonuclease T1 wild type, P00651 (protein)
chain: MMYSKLLTLTTLLLPTALALPSLVERACDYTCGSNCYSSSDVSTAQAAGYQLHEDGETVGSNSYPHKYNNYEGFDFSVSSPYYEWPILSSGDVYSGGSPGADRVVFNENNQLAGVITHTGASGNNFVECT
denaturant m value ((NH4)2SO4 0.15 M): 2.85 kcal/mol/M | denaturant midpoint (higher = more stable) ((NH4)2SO4 0.15 M): 3.16 M | unfolding free energy ((NH4)2SO4 0.15 M): 9.6 kcal/mol | denaturant m value ((NH4)2SO4 0.30 M): 2.9 kcal/mol/M | denaturant midpoint (higher = more stable) ((NH4)2SO4 0.30 M): 3.37 M | unfolding free energy ((NH4)2SO4 0.30 M): 10.3 kcal/mol | denaturant m value (CsCl 0.49 M): 3.18 kcal/mol/M | denaturant midpoint (higher = more stable) (CsCl 0.49 M): 2.81 M | unfolding free energy (CsCl 0.49 M): 8.9 kcal/mol | denaturant m value (KCl 0.1 M): 3.04 kcal/mol/M | denaturant midpoint (higher = more stable) (KCl 0.1 M): 2.9 M | unfolding free energy (KCl 0.1 M): 8.8 kcal/mol | denaturant m value (Li2SO4 0.20 M): 2.82 kcal/mol/M | denaturant midpoint (higher = more stable) (Li2SO4 0.20 M): 3.16 M | unfolding free energy (Li2SO4 0.20 M): 9.6 kcal/mol | denaturant m value (Li2SO4 0.40 M): 2.82 kcal/mol/M | denaturant midpoint (higher = more stable) (Li2SO4 0.40 M): 3.35 M | unfolding free energy (Li2SO4 0.40 M): 10.2 kcal/mol | denaturant m value (LiBr 0.76 M): 3.14 kcal/mol/M | denaturant midpoint (higher = more stable) (LiBr 0.76 M): 2.15 M | unfolding free energy (LiBr 0.76 M): 6.55 kcal/mol | denaturant m value (LiBr 1.52 M): 3.41 kcal/mol/M | denaturant midpoint (higher = more stable) (LiBr 1.52 M): 1.48 M | unfolding free energy (LiBr 1.52 M): 4.51 kcal/mol | denaturant m value (LiCi 0.50 M): 2.71 kcal/mol/M | denaturant midpoint (higher = more stable) (LiCi 0.50 M): 2.75 M | unfolding free energy (LiCi 0.50 M): 8.36 kcal/mol | denaturant m value (LiCi 0.99 M): 3.13 kcal/mol/M | denaturant midpoint (higher = more stable) (LiCi 0.99 M): 2.57 M | unfolding free energy (LiCi 0.99 M): 7.8 kcal/mol | denaturant m value (LiSCN 0.09 M): 3.05 kcal/mol/M | denaturant midpoint (higher = more stable) (LiSCN 0.09 M): 2.72 M | unfolding free energy (LiSCN 0.09 M): 8.27 kcal/mol | denaturant m value (LiSCN 0.34 M): 2.87 kcal/mol/M | denaturant midpoint (higher = more stable) (LiSCN 0.34 M): 2.06 M | unfolding free energy (LiSCN 0.34 M): 6.25 kcal/mol | denaturant m value (LiSCN 0.69 M): 3.08 kcal/mol/M | denaturant midpoint (higher = more stable) (LiSCN 0.69 M): 1.34 M | unfolding free energy (LiSCN 0.69 M): 4.08 kcal/mol | denaturant m value (NH4Cl 0.45 M): 3.02 kcal/mol/M | denaturant midpoint (higher = more stable) (NH4Cl 0.45 M): 2.83 M | unfolding free energy (NH4Cl 0.45 M): 8.5 kcal/mol | denaturant m value (Na2SO4 0.15 M): 2.83 kcal/mol/M | denaturant midpoint (higher = more stable) (Na2SO4 0.15 M): 3.12 M | unfolding free energy (Na2SO4 0.15 M): 9.49 kcal/mol | denaturant m value (NaBr 0.50 M): 3.42 kcal/mol/M | denaturant midpoint (higher = more stable) (NaBr 0.50 M): 2.53 M | unfolding free energy (NaBr 0.50 M): 7.7 kcal/mol | denaturant m value (NaBr 0.99 M): 2.97 kcal/mol/M | denaturant midpoint (higher = more stable) (NaBr 0.99 M): 2.27 M | unfolding free energy (NaBr 0.99 M): 6.91 kcal/mol | denaturant m value (NaSCN 0.25 M): 3.11 kcal/mol/M | denaturant midpoint (higher = more stable) (NaSCN 0.25 M): 2.39 M | unfolding free energy (NaSCN 0.25 M): 7.27 kcal/mol | denaturant m value (NaSCN 0.49 M): 2.93 kcal/mol/M | denaturant midpoint (higher = more stable) (NaSCN 0.49 M): 1.91 M | unfolding free energy (NaSCN 0.49 M): 5.8 kcal/mol | denaturant m value (RbCl 0.50 M): 2.89 kcal/mol/M | denaturant midpoint (higher = more stable) (RbCl 0.50 M): 2.89 M | unfolding free energy (RbCl 0.50 M): 8.4 kcal/mol
